According to publication PMC8405986:

Columns and labels:
[1] = molecular target: NS3-4A protease Q80K-A91S-S174N, single-chain proteolytic domain (NS4A21-32-GSGS-NS3 3-181) (hepatitis C virus)
[2] = molecular target: NS3-4A protease Q80K, single-chain proteolytic domain (NS4A21-32-GSGS-NS3 3-181) (hepatitis C virus)
[3] = molecular target: NS3-4A protease Q80K-A91S, single-chain proteolytic domain (NS4A21-32-GSGS-NS3 3-181) (hepatitis C virus)
[4] = molecular target: NS3-4A protease Q80K-S174N, single-chain proteolytic domain (NS4A21-32-GSGS-NS3 3-181) (hepatitis C virus)
[5] = molecular target: NS3-4A protease Q80K-A91T-S174N, single-chain proteolytic domain (NS4A21-32-GSGS-NS3 3-181) (hepatitis C virus)
[6] = molecular target: NS3-4A protease WT, single-chain proteolytic domain (NS4A21-32-GSGS-NS3 3-181) (hepatitis C virus)
[7] = molecular target: NS3-4A protease Q80K-A91T, single-chain proteolytic domain (NS4A21-32-GSGS-NS3 3-181) (hepatitis C virus)

viral polyprotein substrate derived from the NS4A/4B cleavage site (SensoLyte 520 HCV; Anaspec) (peptide)
KM (μM) of cleavage of the NS4A/4B FRET peptide substrate by purified protease (FRET-based protease assay) [1]: 8.16 µM | KM (μM) of cleavage of the NS4A/4B FRET peptide substrate by purified protease (FRET-based protease assay) [2]: 1.44 µM | KM (μM) of cleavage of the NS4A/4B FRET peptide substrate by purified protease (FRET-based protease assay) [3]: 0.56 µM | KM (μM) of cleavage of the NS4A/4B FRET peptide substrate by purified protease (FRET-based protease assay) [4]: 0.14 µM | KM (μM) of cleavage of the NS4A/4B FRET peptide substrate by purified protease (FRET-based protease assay) [5]: 0.67 µM | KM (μM) of cleavage of the NS4A/4B FRET peptide substrate by purified protease (FRET-based protease assay) [6]: 2.71 µM | KM (μM) of cleavage of the NS4A/4B FRET peptide substrate by purified protease (FRET-based protease assay) [7]: 0.48 µM
